Here are results for 4 molecules from patent US20240158503A1 (PIERRE FABRE MEDICAMENT, published 2024).

For assay [1], the target named is T1, hVSIG4(S)-hFc (VSIG4(S)-Fc) (human).
T1 construct: also called hVSIG4 short-hFc (S); VGIG4(S)-Fc
In words: western blot, 100 ng hVSIG4 short-hFc. (In general: In western blotting, separated proteins are transferred to a membrane and probed.)

The target of assay [2] is T2, human His-tagged VSIG4 short isoform (K00400002-BR1-117) (human, UniProt Q9Y279 20-283).
T2 construct: also called hVSIG4-His (short form); not shown: His tag (detected with anti-6His)
In words: HTRF competition: His-tagged VSIG4 short isoform with iC3b. Background: In TR-FRET formats the signal depends on donor and acceptor labels being close together.

In assay [3] the target is T2, human His-tagged VSIG4 short isoform …. As to the kind of experiment: HTRF competition: His-tagged VSIG4 short isoform with C3b-d2.
Assay [4] has as its target T3, human VSIG4 overexpressed on HEK293E cells (human, UniProt Q9Y279 20-399).
T3 construct: whole, on cells; also called hVSIG4/HEK293E; huVSIG4
In words: flow cytometry on HEK293E cells expressing human VSIG4, antibody titration. (In general: In flow cytometry, cells or beads pass a laser one at a time.)

Assay [5] deals with T4, VSIG4-M7-Fc (human).
T4 construct: 78; Leader left out; 79
As to the kind of experiment: scFv-phage ELISA on coated Fc fusion (100 ng/well).

Assay [6] concerns the target T5, hVSIG4-Fc (long VSIG4 form, epitope-mapping construct) (human).
T5 construct: 55
In words: scFv-phage ELISA on coated Fc fusion (100 ng/well), anti-M13-HRP, A490.

In assay [7] the target is T6, hVSIG4-V-Fc (short VSIG4 form, epitope-mapping construct) (human).
T6 construct: 58; All M1-M8 mutations were made in this short form
The description is as above.

In assay [8] the target is T7, VSIG4-M1-Fc (human).
T7 construct: Short form carrying E24T, V25A, E27H, V29L, T30A; Structure [LS]-QGAVGA-[VSIG4]-LAASAAS-[FC], leader left out; 61
The description is as above.

The target of assay [9] is T8, VSIG4-M2-Fc (human).
T8 construct: 63; Leader left out; 64
The description is as above.

The target of assay [10] is T9, VSIG4-M3-Fc (human).
T9 construct: 66; Leader left out; 67
The description is as above.

Assay [11] deals with T10, VSIG4-M4-Fc (human).
T10 construct: 69; Leader left out; 70
Described as above.

Assay [12] concerns the target T11, VSIG4-M5-Fc (human).
T11 construct: 72; Leader left out; 73
The description is as above.

The target of assay [13] is T12, VSIG4-M6-Fc (human).
T12 construct: 75; Leader left out; 76
The assay is described as above.

The target in assay [14] is T13, VSIG4-M8-Fc (human).
T13 construct: 81; Leader left out; 82
Described as above.

The target of assay [15] is T13, VSIG4-M8-Fc. As to the kind of experiment: scFv-phage ELISA on coated Fc fusion (100 ng/well).

B1: SA2281 (full-length human anti-VSIG4 monoclonal antibody, IgG form) (antibody, V domains shown)
VH: QVQLVESGGGVVQPGRSLRVSCAASGFTFSTYAMHWVRQAPGKGLEWLAVVSHDGTYKYYGDSVKGRFSISRDNSKNTLYLQMNSLRSEDTAVYYCGRHAAGSSFDYWGQGTVVTVSS
VL: DIQMTQSPSSLSASVGDRVTITCQASRDISNYLNWYQQKPGKAPKLLIYKTSNLQRGVPSRFSGSGSGTEFTLTISRLQPDDSATYYCQQSYRTPYTFGQGTKLEIK
notes: also called Mab SA2281
In the case of B1, the binding result in assay [1] is on record as “binds”. The IC50 (usually the point on the concentration scale where inhibition reaches its midpoint) in [2] came out at 9.5 nM; in assay [3], 7.3 nM. In addition, the EC50 (as a rule, the concentration needed to bring the measured effect to its halfway point) in assay [4] was found to be 0.461 nM.

B2: SA2281 scFv-phage (original scFv version of SA2281) (scFv, V domains shown)
VH: B1 VH
VL: B1 VL
Turning to B2, the binding result in [5] is given as “no binding”; in [6] it was “binds”; in assay [7], “binds”; in assay [8], “binds”; in assay [9] it was “binds”; in assay [10], “binds”. Moreover, the binding result in assay [11], in assay [12], in assay [13] and in assay [14] was “binds” in each case.

B3: SA2297 (full-length human anti-VSIG4 monoclonal antibody, IgG form) (antibody, V domains shown)
VH: QVQLVESGGGVVQPGGSLRLSCAASGFIFSDYYMSWVRQAPGKGLEWVSYISPSGYTISYADSVKGRFTISRDNSKNSLYLQMNSLRAEDTAVYYCARRFSSSWSGYFDYWGHGALVTVSS
VL: DIQMTQSPSTLSASVGDRVTITCRASQNINRWLAWYQQKPGKAPKLLIYKAFRLHSGVPSRFSGSGSGTEFTLTITSLQPDDFATYYCQQYLSYSSSIFGQGTKVEIK
notes: also called Mab SA2297
For the molecule B3, the binding result in [1] was “binds”. The results for the IC50 in assay [2] and in assay [3] were 17.9 nM and 16.4 nM, respectively. In [4], this molecule returned an EC50 of 1.18 nM.

B4: SA2297 scFv-phage (original scFv version of SA2297) (scFv, V domains shown)
VH: B3 VH
VL: B3 VL
For B4, the binding result in [5] is on record as “no binding”; in assay [15], “no binding”; in assay [6], “binds”; in assay [7], “binds”; in assay [8] it was “binds”; in assay [9] it was “binds”. Further, the binding result in assay [10], in assay [11], in [12] and in [13] was “binds” each time.
